1 molecule from publication doi:10.1101/589580 can be followed below.

The target in the test is T1, endogenous ZO1 with N-terminal mNeonGreen (CRISPR knock-in, MDCK-II) (dog (endogenous in MDCK-II)), O97758.
T1 chain: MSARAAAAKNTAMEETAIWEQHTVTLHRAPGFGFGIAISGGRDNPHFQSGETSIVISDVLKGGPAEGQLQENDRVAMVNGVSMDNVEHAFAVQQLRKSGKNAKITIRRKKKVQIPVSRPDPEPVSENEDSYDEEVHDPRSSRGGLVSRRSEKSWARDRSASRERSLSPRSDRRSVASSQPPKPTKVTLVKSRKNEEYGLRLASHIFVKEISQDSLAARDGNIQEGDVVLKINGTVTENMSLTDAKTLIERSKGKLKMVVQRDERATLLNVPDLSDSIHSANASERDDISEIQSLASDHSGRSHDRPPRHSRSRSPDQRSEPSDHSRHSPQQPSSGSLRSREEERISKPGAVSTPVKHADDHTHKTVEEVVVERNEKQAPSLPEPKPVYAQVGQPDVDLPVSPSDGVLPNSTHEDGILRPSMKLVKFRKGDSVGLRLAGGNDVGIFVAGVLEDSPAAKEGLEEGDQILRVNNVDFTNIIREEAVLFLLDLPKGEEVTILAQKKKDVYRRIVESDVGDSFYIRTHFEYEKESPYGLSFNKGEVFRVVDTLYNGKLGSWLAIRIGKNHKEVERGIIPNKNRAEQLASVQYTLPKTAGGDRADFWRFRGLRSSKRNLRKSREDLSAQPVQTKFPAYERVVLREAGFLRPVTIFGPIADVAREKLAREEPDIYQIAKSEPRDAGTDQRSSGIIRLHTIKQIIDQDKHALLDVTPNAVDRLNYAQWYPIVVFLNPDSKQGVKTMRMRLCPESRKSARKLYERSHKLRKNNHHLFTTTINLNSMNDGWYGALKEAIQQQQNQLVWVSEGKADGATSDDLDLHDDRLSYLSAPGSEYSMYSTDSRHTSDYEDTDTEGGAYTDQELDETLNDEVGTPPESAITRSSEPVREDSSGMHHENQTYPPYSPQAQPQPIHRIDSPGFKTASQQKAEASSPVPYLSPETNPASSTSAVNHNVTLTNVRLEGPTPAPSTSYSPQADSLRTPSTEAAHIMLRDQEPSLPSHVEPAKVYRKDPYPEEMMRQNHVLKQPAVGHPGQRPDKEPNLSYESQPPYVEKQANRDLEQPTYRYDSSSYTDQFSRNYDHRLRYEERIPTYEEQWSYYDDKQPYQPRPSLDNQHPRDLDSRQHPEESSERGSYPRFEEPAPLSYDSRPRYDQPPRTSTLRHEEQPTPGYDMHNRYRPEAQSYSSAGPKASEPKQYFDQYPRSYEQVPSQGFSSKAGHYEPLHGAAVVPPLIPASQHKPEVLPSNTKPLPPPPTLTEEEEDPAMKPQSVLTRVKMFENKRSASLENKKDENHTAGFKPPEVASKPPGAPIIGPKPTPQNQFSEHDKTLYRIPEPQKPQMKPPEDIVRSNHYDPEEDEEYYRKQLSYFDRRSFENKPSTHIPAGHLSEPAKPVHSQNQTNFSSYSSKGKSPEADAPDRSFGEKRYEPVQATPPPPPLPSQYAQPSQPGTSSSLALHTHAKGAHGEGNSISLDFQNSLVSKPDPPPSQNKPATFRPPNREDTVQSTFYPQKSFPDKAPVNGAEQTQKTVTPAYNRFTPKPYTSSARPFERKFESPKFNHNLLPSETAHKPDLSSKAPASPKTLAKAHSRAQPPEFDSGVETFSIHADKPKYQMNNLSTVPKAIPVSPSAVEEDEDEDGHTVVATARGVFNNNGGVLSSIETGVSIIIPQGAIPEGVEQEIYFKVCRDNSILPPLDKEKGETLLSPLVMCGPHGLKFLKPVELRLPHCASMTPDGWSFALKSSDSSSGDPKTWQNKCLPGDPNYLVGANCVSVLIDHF
In words: FCS molecular brightness. Conditions: remark: other sources report otherwise.

B1: endogenous ZO1 with N-terminal mNeonGreen (CRISPR knock-in, MDCK-II), O97758 1-1769 (natural protein)
chain: MSARAAAAKNTAMEETAIWEQHTVTLHRAPGFGFGIAISGGRDNPHFQSGETSIVISDVLKGGPAEGQLQENDRVAMVNGVSMDNVEHAFAVQQLRKSGKNAKITIRRKKKVQIPVSRPDPEPVSENEDSYDEEVHDPRSSRGGLVSRRSEKSWARDRSASRERSLSPRSDRRSVASSQPPKPTKVTLVKSRKNEEYGLRLASHIFVKEISQDSLAARDGNIQEGDVVLKINGTVTENMSLTDAKTLIERSKGKLKMVVQRDERATLLNVPDLSDSIHSANASERDDISEIQSLASDHSGRSHDRPPRHSRSRSPDQRSEPSDHSRHSPQQPSSGSLRSREEERISKPGAVSTPVKHADDHTHKTVEEVVVERNEKQAPSLPEPKPVYAQVGQPDVDLPVSPSDGVLPNSTHEDGILRPSMKLVKFRKGDSVGLRLAGGNDVGIFVAGVLEDSPAAKEGLEEGDQILRVNNVDFTNIIREEAVLFLLDLPKGEEVTILAQKKKDVYRRIVESDVGDSFYIRTHFEYEKESPYGLSFNKGEVFRVVDTLYNGKLGSWLAIRIGKNHKEVERGIIPNKNRAEQLASVQYTLPKTAGGDRADFWRFRGLRSSKRNLRKSREDLSAQPVQTKFPAYERVVLREAGFLRPVTIFGPIADVAREKLAREEPDIYQIAKSEPRDAGTDQRSSGIIRLHTIKQIIDQDKHALLDVTPNAVDRLNYAQWYPIVVFLNPDSKQGVKTMRMRLCPESRKSARKLYERSHKLRKNNHHLFTTTINLNSMNDGWYGALKEAIQQQQNQLVWVSEGKADGATSDDLDLHDDRLSYLSAPGSEYSMYSTDSRHTSDYEDTDTEGGAYTDQELDETLNDEVGTPPESAITRSSEPVREDSSGMHHENQTYPPYSPQAQPQPIHRIDSPGFKTASQQKAEASSPVPYLSPETNPASSTSAVNHNVTLTNVRLEGPTPAPSTSYSPQADSLRTPSTEAAHIMLRDQEPSLPSHVEPAKVYRKDPYPEEMMRQNHVLKQPAVGHPGQRPDKEPNLSYESQPPYVEKQANRDLEQPTYRYDSSSYTDQFSRNYDHRLRYEERIPTYEEQWSYYDDKQPYQPRPSLDNQHPRDLDSRQHPEESSERGSYPRFEEPAPLSYDSRPRYDQPPRTSTLRHEEQPTPGYDMHNRYRPEAQSYSSAGPKASEPKQYFDQYPRSYEQVPSQGFSSKAGHYEPLHGAAVVPPLIPASQHKPEVLPSNTKPLPPPPTLTEEEEDPAMKPQSVLTRVKMFENKRSASLENKKDENHTAGFKPPEVASKPPGAPIIGPKPTPQNQFSEHDKTLYRIPEPQKPQMKPPEDIVRSNHYDPEEDEEYYRKQLSYFDRRSFENKPSTHIPAGHLSEPAKPVHSQNQTNFSSYSSKGKSPEADAPDRSFGEKRYEPVQATPPPPPLPSQYAQPSQPGTSSSLALHTHAKGAHGEGNSISLDFQNSLVSKPDPPPSQNKPATFRPPNREDTVQSTFYPQKSFPDKAPVNGAEQTQKTVTPAYNRFTPKPYTSSARPFERKFESPKFNHNLLPSETAHKPDLSSKAPASPKTLAKAHSRAQPPEFDSGVETFSIHADKPKYQMNNLSTVPKAIPVSPSAVEEDEDEDGHTVVATARGVFNNNGGVLSSIETGVSIIIPQGAIPEGVEQEIYFKVCRDNSILPPLDKEKGETLLSPLVMCGPHGLKFLKPVELRLPHCASMTPDGWSFALKSSDSSSGDPKTWQNKCLPGDPNYLVGANCVSVLIDHF
For orientation: stoichiometry N means the number of molecules, sites or subunits per partner or assembly. Molecule B1 gave a stoichiometry N of 5.
